Measurements from PMC13648279.
pKd: −log10 of the molar value.

What was measured:
[1] = molecular target: MbTEC^PH (PH domain of Monosiga brevicollis TEC, residues 1-174), labelled with Atto488; experiment: fluorescence anisotropy; conditions: parent: 4.0 ± 1.3 µM
[2] = molecular target: MbTEC^PH (PH domain of Monosiga brevicollis TEC, residues 1-174), labelled with Atto488 (Monosiga brevicollis MX1); experiment: fluorescence polarisation; fluorescence anisotropy; MbTEC^32K constructs serially diluted into 200 nM Atto488-labelled PH domain; 20 mM HEPES pH 7.4, 150 mM NaCl, 2% glycerol, 1 mM TCEP; 21 °C; one-site binding model
[3] = molecular target: MbTEC^PH (R28E) (Monosiga brevicollis MX1); experiment: as above
[4] = molecular target: MbTEC^PH (R28E) (Monosiga brevicollis MX1); experiment: FP; conditions: domain or fragment

Work on “MbTEC^32K (SH3-SH2-kinase module of Monosiga brevicollis TEC, residues 229-667) Y579D; R581E” yielded a pKd [1] of 3.71.

“MbTEC^32K (SH3-SH2-kinase module of Monosiga brevicollis TEC, residues 229-667) (domain or fragment)” gave a pKd [2] of 5.40 and a fold weakening of binding against wild-type MbTEC^PH [3] of 5 fold.

Substance “MbTEC^32K (SH3-SH2-kinase module of Monosiga brevicollis TEC, residues 229-667)” has a pKd [4] of 4.65.
